Reference: the Human Domainome abundance scans (Beltran et al. 2025)

B1: POU domain, class 4, transcription factor 1, residues 266 to 347; numbered along this chain, Q01851 (parent)
chain: RELEAFAERFKQRRIKLGVTQADVGSALANLKIPGVGSLSQSTICRFESLTLSHNNMIALKPILQAWLEEAEGAQREKMNKP

Variants of: B1
Test: abundance fitness (aPCA) (normalised: wild type 0, dead -1); higher = more abundant; growth selection in yeast, the domain comes from the species named
Details: Homo sapiens

Abundance fitness: each site, then its substitutions
G73: P -0.259 | N 0.003 | S -0.027 | F -0.056 | I 0.121 | A 0.015 | K -0.046 | D -0.105 | T 0.063 | E 0.125 | Y 0.144 | H -0.068 | V 0.071 | Q 0.043 | R -0.054 | W -0.205 | L 0.056 | M -0.065 | C -0.013
R76: F -0.032 | E 0.016 | D -0.015 | M 0.044 | L 0.012 | Y -0.124 | A 0.03 | W -0.056 | Q -0.003 | P -0.002 | N 0.026 | C 0.012 | H -0.003 | G 0.007 | K -0.006 | V -0.009 | T 0.008 | I -0.029
A71: G -0.379 | H -0.146 | P -0.588 | T 0.062 | R -0.051 | Y -0.353 | E -0.062 | D -0.572 | N 0.044 | K 0.072 | M -0.005 | I -0.18 | W -0.186 | Q -0.051 | F -0.289 | S -0.079
E70: T -0.026 | I -0.161 | S -0.006 | Y -0.145 | Q -0.015 | V -0.176 | C -0.125 | G -0.061 | H -0.077 | K 0.004 | D -0.018 | R -0.046 | A -0.07 | F -0.198 | M -0.1 | L -0.18 | W -0.311 | P -0.657
E72: T -0.244 | I -0.179 | Y -0.138 | C -0.416 | G -0.267 | M -0.349 | S -0.229 | N -0.35 | K -0.518 | W -0.415 | Q -0.21 | V -0.35 | R -0.421 | H -0.456 | P -0.348 | D -0.259 | L -0.431
K78: D -0.153 | A 0.089 | I -0.026 | M 0.072 | G -0.036 | E 0.035 | L -0.012 | F 0.003
Q75: Y -0.085 | N -0.061 | C -0.015 | R -0.028 | I -0.051 | A 0 | L -0.001 | M -0.025 | T -0.033 | F -0.043 | P -0.063 | V -0.025 | D -0.045 | W -0.077 | H 0.041 | E -0.01
W67: A -0.406 | V -0.412 | C -0.939 | R -0.639 | N -0.65 | Y -0.175 | L -0.475 | Q -0.712 | K -0.606 | P -0.646 | E -0.806 | T -0.805 | G -0.727 | F 0.018 | D -0.425
Q65: T -0.06 | P -0.98 | Y -0.075 | F -0.112 | A -0.041 | W -0.144 | D 0.01 | M -0.056 | N -0.078 | R -0.162 | K -0.049 | I -0.105 | H -0.047 | E 0.061 | G -0.086 | C -0.14 | L -0.073
A66: Y -0.104 | G -0.029 | D 0.013 | L -0.125 | K 0.044 | M -0.041 | N -0.017 | R -0.022 | I -0.141 | S -0.005 | H 0.001 | C -0.049 | E 0.012 | F -0.113 | Q -0.046 | V -0.12 | P -0.619 | T -0.012 | W -0.192
I63: G -0.274 | L -0.113 | T 0.034 | P -0.203 | R -0.154 | N -0.17 | Q -0.247 | C -0.028 | M -0.168 | S -0.204 | K -0.137 | E -0.295 | F 0.027 | D -0.41 | V 0.002
A74: D -0.027 | K -0.009 | V -0.005 | H -0.009 | C 0.012 | F -0.035 | W -0.137 | E 0.025 | N -0.019 | P -0.05 | Q -0.029 | M -0.016 | R -0.008 | S 0.005 | T -0.013 | Y 0.002 | L 0.006 | G -0.044
P62: Y -0.562 | Q -0.393 | M -0.687 | T -0.192 | N -0.286 | D -0.188 | R -0.347 | L -0.524 | C -0.429 | I -0.816 | A -0.366 | F -0.518 | V -0.485 | K -0.243 | S -0.243 | G -0.2 | E -0.413
K61: P -1.19 | M -0.1 | S -0.149 | D -0.635 | T -0.132 | N -0.388 | G -0.305 | V -0.105 | H -0.265 | L -0.198 | Y 0.007 | E -0.022 | F -0.349 | R -0.051 | W -0.07 | C -0.012 | A -0.074 | Q 0.018 | I 0.165
E77: T -0.064 | M 0.021 | Y -0.009 | P -0.08 | S -0.024 | D 0.006 | Q -0.02 | W -0.145 | F -0.16 | G -0.025 | V -0.005 | A -0.044 | C -0.088 | L -0.053 | H -0.092 | I -0.063
I58: W -0.107 | M -0.042 | T 0.033 | S -0.013 | Y -0.118 | N 0.021 | V -0.035
L68: M -0.112 | T -0.459 | S -0.497 | H -0.329 | V -0.074 | E -0.672 | Q -0.568 | W -0.626 | C -0.29 | Y -0.304 | G -0.821 | R -0.774 | P -0.715 | I 0.037
A59: I -0.021 | S -0.016 | T -0.011 | F 0 | K 0.035 | W -0.198 | G -0.103 | E -0.026 | L -0.027 | C -0.054 | D -0.052 | Y -0.072 | Q 0.056 | P -0.368 | M 0.009 | N -0.278 | V 0.011 | H 0.227 | R -0.051
L64: A -0.513 | V -0.336 | W -0.948 | E -0.709 | Q -0.533 | Y -0.144 | D -0.652 | N -0.431 | G -0.672 | M -0.323 | T -0.76 | F -0.337 | C -0.499 | S -0.793 | P -0.711 | I -0.339
L60: N -0.223 | F -0.355 | E -0.581 | I -0.303 | G -0.696 | W -0.605 | A -0.344 | S -0.253 | C 0.074 | H -0.392 | T -0.452 | V -0.029
E69: V -0.073 | P -0.612 | A -0.022 | G -0.207 | H -0.076 | W -0.224 | R -0.111 | T -0.085 | D 0.011 | S -0.054 | K -0.036 | C -0.168 | F -0.174 | Q -0.018 | I 0.056 | L -0.036 | N -0.022 | Y -0.171
